From patent publication US20240309112A1 (MITSUBISHI TANABE PHARMA, published 2024)
Where a chain is given by its changes, count along the chain named. Each block holds one binder with its values, some of them ahead of it.

Columns and labels:
[1] = target: Human PAD4 (enzyme inhibition assays) (human, UniProt Q9UM07 1-663, limits assumed); assay: cell-based or functional assay
[2] = target: T1, biotin-labeled human PAD4 protein (human, UniProt Q9UM07 1-663, biotin on the Avi tag (biotin ligase BirA)); assay: SPR, Biacore T200, biotin-labeled human PAD4 captured on chip, IgG as analyte
T1 construct: also called Avi tag-human PAD4; biotin-labeled PAD4; not shown: Avi tag left on the N-terminal side after the GST tag was cleaved with PreScission Protease

[3] = target: T2, human PAD4 (Cayman Chemical company, Cat 10500) (human, UniProt Q9UM07 1-663); assay: SPR, Biacore T200, antibody captured on Protein A chip, 50 nM human PAD4 as analyte; antigen binding amount divided by antibody binding amount
T2 construct: Bought protein
Method: In order to investigate an antigen-binding ability after the storage, antigen-binding activity measurements were performed using a surface plasmon resonance apparatus Biacore T200 (GE Healthcare). Cryopreserved test antibodies and test antibodies stored at 4° C. or 40° C. for 4 weeks were prepared to 10 μg/mL using a running buffer solution HBS-EP+. Using a Series S Sensorchip Protein A (GE Healthcare), a test antibody solution was added to a flow cell 2 at a flow rate of 10 μL/min for 60 seconds and immobilized on a sensor chip. A flow cell 1 was used as a reference cell. A binding amount 55 seconds after the completion of the addition of the test antibody to the flow cell 2 was subtracted from a binding amount of the flow cell 1 to obtain an antibody binding amount. Next, human PAD4 (Cayman Chemical company, Cat 10500) was prepared to 50 nM using HBS-EP+ and used as an analyte solution. The analyte solution was added at a flow rate of 30 μL/min for 120 seconds to obtain a sensorgram of a bound phase. A binding amount 5 seconds before the completion of the addition of the analyte solution to the flow cell 2 was subtracted from a binding amount of the flow cell 1 to obtain an antigen binding amount. Subsequently, a running buffer solution was added for 180 seconds to obtain a sensorgram of a dissociated phase. The measurements were performed at 25° C. The antibody binding amount and the antigen binding amount were calculated using a data analysis program (GE Healthcare, Biacore T200 Evaluation Software v3.1), and the antigen binding amount under each condition was divided by the antibody binding amount to obtain a relative antigen binding amount. There was no change between the relative antigen-binding amount of a cryopreserved test antibody and the relative antigen-binding amount of a test antibody stored at 4° C. The relative antigen-binding amounts of various test antibodies stored at 40° C. for 4 weeks were compared to the relative antigen-binding amounts of the test antibodies stored at 4° C. for 4 weeks, and the antigen-binding activities were determined.

[4] = target: T1, biotin-labeled human PAD4 protein; assay: SPR, Biacore T200, biotin-labeled human PAD4 captured on chip, antibody as analyte, single-cycle, 1:1 model
Method: A biotin-labeled human PAD4 protein was immobilized on a sensor chip using a Biotin Capture Kit (GE Healthcare). The PAD4 protein was prepared to 0.5 μg/mL using HBS-EP+ and used as a ligand solution. The ligand solution was added to a flow cell at a flow rate of 10 μL/min for 30 seconds, and then HBS-EP+ was added for 60 seconds. A flow cell to which no ligand solution was added was used as a reference cell. The test antibody was prepared from several hundred pM to several nM using HBS-EP+ and used as an analyte solution. Further, a running buffer solution was used as a blank solution. The blank solution or the analyte solution was added at a flow rate of 30 μL/min for 180 seconds using a single-cycle method, and a dissociation time was 1200 seconds. A sensorgram of the reference cell is subtracted from a sensorgram of the flow cell to which the ligand was added when the blank solution or the analyte solution was added, and further, a sensorgram to which the blank solution was added was subtracted from the sensorgram to which the analyte solution was added, and the result was used for analysis. Binding parameters were calculated using a 1:1 binding model using Biacore T200 Evaluation software (GE Healthcare). […] The dissociation constants of the antibodies 2-1-47, 3-1-39, 3-2-37, and 4-2-25 with improved complementarity determining regions with respect to human PAD4 protein were respectively 31, 48, 73, and 20 pM.

[5] = target: T1, biotin-labeled human PAD4 protein; assay: as above; remark: listed apart in the source
Method: Binding affinities of the test antibodies G8 and G8ss with respect to human PAD4 proteins were determined by measuring a dissociation constant (KD) in HBS-EP+ using a surface plasmon resonance apparatus Biacore T200 (GE Healthcare). A biotin-labeled human PAD4 protein was immobilized on a sensor chip using a Biotin Capture Kit (GE Healthcare). The PAD4 protein was prepared to 0.25 μg/mL using HBS-EP+ and used as a ligand solution. The ligand solution was added to a flow cell at a flow rate of […] for 30 seconds, and then HBS-EP+ was added for 60 seconds. A flow cell to which no ligand solution was added was used as a reference cell. The test antibody was prepared from several hundred pM to several nM using HBS-EP+ and used as an analyte solution. Further, a running buffer solution was used as a blank solution. The blank solution or the analyte solution was added at a flow rate of 30 μL/min for 180 seconds using a single-cycle method, and a dissociation time was 1200 seconds. A sensorgram of the reference cell is subtracted from a sensorgram of the flow cell to which the ligand was added when the blank solution or the analyte solution was added, and further, a sensorgram to which the blank solution was added was subtracted from the sensorgram to which the analyte solution was added, and the result was used for analysis. Binding parameters were calculated using a 1:1 binding model using Biacore T200 Evaluation software (GE Healthcare).

Human PAD4 (enzyme inhibition assays), sequence (Q9UM07 whole entry): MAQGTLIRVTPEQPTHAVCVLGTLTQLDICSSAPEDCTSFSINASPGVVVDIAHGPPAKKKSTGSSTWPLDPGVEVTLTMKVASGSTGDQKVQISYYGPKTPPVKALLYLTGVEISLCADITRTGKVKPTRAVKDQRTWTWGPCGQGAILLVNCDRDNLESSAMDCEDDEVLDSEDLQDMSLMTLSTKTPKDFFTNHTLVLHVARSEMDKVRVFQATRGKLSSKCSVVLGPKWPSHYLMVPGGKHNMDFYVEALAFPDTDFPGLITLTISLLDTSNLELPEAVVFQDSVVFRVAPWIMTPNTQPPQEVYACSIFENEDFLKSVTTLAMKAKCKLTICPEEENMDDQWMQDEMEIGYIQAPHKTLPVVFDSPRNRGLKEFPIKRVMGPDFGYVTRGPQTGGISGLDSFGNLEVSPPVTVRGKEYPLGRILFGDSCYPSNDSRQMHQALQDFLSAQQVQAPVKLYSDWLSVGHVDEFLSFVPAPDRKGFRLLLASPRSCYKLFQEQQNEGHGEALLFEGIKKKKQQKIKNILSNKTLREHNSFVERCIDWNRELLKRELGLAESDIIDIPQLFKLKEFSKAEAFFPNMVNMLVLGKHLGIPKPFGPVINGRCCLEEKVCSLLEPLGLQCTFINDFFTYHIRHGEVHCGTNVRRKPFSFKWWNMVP
T2 sequence (Q9UM07 whole entry): as above
T1 sequence (Q9UM07 whole entry): as above

B1: Lib2(4R)-1-47 (antibody, V domains shown)
VH: EVQLLESGGGLVQPGGSLRLSCAASGFTFSTYAMGWVRQAPGKGLEFVAAIRNDGSWTGYGTPYKTRFTISRDNSKNTLYLQMNSLRAEDTAVYYCAKYTGSSGGSIGAWGQGTLVTVSS
VL: SYELTQPPSVSVSPGQTARITCSGGNRNYYYGWYQQKPGQAPVTVIYANDKRPSGIPERFSGSNSGSTTTLTISGVQAEDEADYYCGTATTGKYVFGGGTKLTVLG
notes: Tested as full-length antibody (human IgG1/human k) from Expi293; also called Lib(4R)-1-47
IC50, human PAD4 enzyme inhibitory activity (citrullination of BAEE, colorimetric) [1]: 9.6 nM
Kd [2]: 0.0175 nM
koff [2]: 0.000164 s⁻¹
kon [2]: 9.39e+06 M⁻¹ s⁻¹

B2: anti-PAD4 antibody 2-1-47 (antibody, human IgG1, lambda, V domains shown)
VH: B1 VH with N84S
VL: B1 VL
notes: Lib2(4R)-1-47 with the 84th asparagine of the heavy chain substituted with serine; full-length IgG from ExpiCHO
antigen-binding activity after storage at 40° C. for 4 weeks, relative to storage at 4° C. [3]: 95.6%
IC50, human PAD4 enzyme inhibitory activity (citrullination of BAEE, colorimetric) [1]: 12.2 nM
Kd [4]: 0.031 nM
koff [4]: 0.000507 s⁻¹
kon [4]: 1.61e+07 M⁻¹ s⁻¹

B6: Lib1(6R)-1-39 (antibody, human IgG1, lambda, V domains shown)
VH: B1 VH with Y60T, G61S, T62V, P63N, Y64A
VL: B1 VL
notes: Tested as full-length antibody (human IgG1/human k) from Expi293
IC50, human PAD4 enzyme inhibitory activity (citrullination of BAEE, colorimetric) [1]: 8.7 nM
Kd [2]: 0.0183 nM
koff [2]: 0.000108 s⁻¹
kon [2]: 5.9e+06 M⁻¹ s⁻¹

B7: Lib2(5R)-2-25 (antibody, human IgG1, lambda, V domains shown)
VH: B1 VH with G61P, T62P, Y64L, T66G
VL: B1 VL with T90Y
notes: as for B6
IC50, human PAD4 enzyme inhibitory activity (citrullination of BAEE, colorimetric) [1]: 8.3 nM
Kd [2]: 0.0158 nM
koff [2]: 0.000202 s⁻¹
kon [2]: 1.28e+07 M⁻¹ s⁻¹

B8: Lib1(6R)-2-37 (antibody, human IgG1, lambda, V domains shown)
VH: B1 VH with Y60I, T62Y, P63N, Y64Q, T66S, A97G
VL: B1 VL with T90L
notes: as for B6
IC50, human PAD4 enzyme inhibitory activity (citrullination of BAEE, colorimetric) [1]: 13.4 nM
Kd [2]: 0.0358 nM
koff [2]: 0.000361 s⁻¹
kon [2]: 1.01e+07 M⁻¹ s⁻¹

The remaining lines, values ahead:

IC50, human PAD4 enzyme inhibitory activity (citrullination of BAEE, colorimetric) [1]: 21.6 nM
Kd [5]: 0.214 nM
koff [5]: 0.00165 s⁻¹
kon [5]: 7.7e+06 M⁻¹ s⁻¹
Kd [2]: 0.208 nM
koff [2]: 0.00146 s⁻¹
kon [2]: 7.03e+06 M⁻¹ s⁻¹
B3: humanized anti-PAD4 antibody G8 (antibody, human IgG1, lambda, V domains shown)
VH: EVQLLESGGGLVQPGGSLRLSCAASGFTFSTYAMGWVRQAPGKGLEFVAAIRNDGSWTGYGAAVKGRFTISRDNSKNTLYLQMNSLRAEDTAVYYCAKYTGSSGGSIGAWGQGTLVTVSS
VL: B1 VL with T90D
notes: Full-length IgG, described in WO 2016/143753; also called test antibody G8; parent clone G8

antigen-binding activity after storage at 40° C. for 4 weeks, relative to storage at 4° C. [3]: 97%
IC50, human PAD4 enzyme inhibitory activity (citrullination of BAEE, colorimetric) [1]: 7.6 nM
Kd [4]: 0.02 nM
koff [4]: 0.000299 s⁻¹
kon [4]: 1.47e+07 M⁻¹ s⁻¹
B4: anti-PAD4 antibody 4-2-25 (antibody, human IgG1, lambda, V domains shown)
VH: B1 VH with G61P, T62P, Y64L, T66G, N84S
VL: B1 VL with T90Y
notes: Lib2(5R)-2-25 with the 84th asparagine of the heavy chain substituted with serine; full-length IgG from ExpiCHO

antigen-binding activity after storage at 40° C. for 4 weeks, relative to storage at 4° C. [3]: 82.2%
IC50, human PAD4 enzyme inhibitory activity (citrullination of BAEE, colorimetric) [1]: 20.3 nM
Kd [5]: 0.276 nM
koff [5]: 0.00176 s⁻¹
kon [5]: 6.37e+06 M⁻¹ s⁻¹
Kd [4]: 0.199 nM
koff [4]: 0.00122 s⁻¹
kon [4]: 6.15e+06 M⁻¹ s⁻¹
B5: humanized anti-PAD4 antibody G8ss (antibody, human IgG1, lambda, V domains shown)
VH: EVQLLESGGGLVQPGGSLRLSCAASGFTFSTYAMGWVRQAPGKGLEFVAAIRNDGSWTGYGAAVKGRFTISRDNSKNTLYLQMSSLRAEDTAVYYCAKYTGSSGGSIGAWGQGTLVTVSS
VL: B1 VL with T90D
notes: G8 with the 84th asparagine of the heavy chain substituted with serine; full-length IgG; also called test antibody G8ss

antigen-binding activity after storage at 40° C. for 4 weeks, relative to storage at 4° C. [3]: 93.9%
IC50, human PAD4 enzyme inhibitory activity (citrullination of BAEE, colorimetric) [1]: 8.8 nM
Kd [4]: 0.048 nM
koff [4]: 0.000626 s⁻¹
kon [4]: 1.3e+07 M⁻¹ s⁻¹
B9: anti-PAD4 antibody 3-1-39 (antibody, human IgG1, lambda, V domains shown)
VH: B1 VH with Y60T, G61S, T62V, P63N, Y64A, N84S
VL: B1 VL
notes: Lib1(6R)-1-39 with the 84th asparagine of the heavy chain substituted with serine; full-length IgG from ExpiCHO

antigen-binding activity after storage at 40° C. for 4 weeks, relative to storage at 4° C. [3]: 94.7%
IC50, human PAD4 enzyme inhibitory activity (citrullination of BAEE, colorimetric) [1]: 15.3 nM
Kd [4]: 0.073 nM
koff [4]: 0.000617 s⁻¹
kon [4]: 8.51e+06 M⁻¹ s⁻¹
B10: anti-PAD4 antibody 3-2-37 (antibody, human IgG1, lambda, V domains shown)
VH: B1 VH with Y60I, T62Y, P63N, Y64Q, T66S, N84S, A97G
VL: B1 VL with T90L
notes: Lib1(6R)-2-37 with the 84th asparagine of the heavy chain substituted with serine; full-length IgG from ExpiCHO
